Tests used:
[1] = biological target: T1, (Homo sapiens, UniProt P11474); settings: phage display peptides; cited from earlier work
T1 sequence (P11474 1-423): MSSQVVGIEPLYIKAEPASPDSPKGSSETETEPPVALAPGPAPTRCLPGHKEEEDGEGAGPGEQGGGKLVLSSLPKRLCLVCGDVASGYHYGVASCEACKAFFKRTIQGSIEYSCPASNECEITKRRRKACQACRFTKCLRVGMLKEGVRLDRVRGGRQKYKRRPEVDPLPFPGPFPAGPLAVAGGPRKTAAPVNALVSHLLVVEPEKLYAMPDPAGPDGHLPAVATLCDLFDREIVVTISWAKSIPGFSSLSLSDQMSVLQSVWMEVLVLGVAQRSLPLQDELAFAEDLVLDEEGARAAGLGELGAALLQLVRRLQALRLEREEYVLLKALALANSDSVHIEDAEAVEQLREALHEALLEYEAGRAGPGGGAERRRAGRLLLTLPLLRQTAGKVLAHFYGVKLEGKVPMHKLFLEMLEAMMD

[2] = biological target: T2, ERRgamma ligand-binding domain (LBD) (Homo sapiens, UniProt P62508); settings: cited from earlier work; for interaction with ERRgamma: in the absence of ligand
T2 sequence (P62508 233-457 limits assumed): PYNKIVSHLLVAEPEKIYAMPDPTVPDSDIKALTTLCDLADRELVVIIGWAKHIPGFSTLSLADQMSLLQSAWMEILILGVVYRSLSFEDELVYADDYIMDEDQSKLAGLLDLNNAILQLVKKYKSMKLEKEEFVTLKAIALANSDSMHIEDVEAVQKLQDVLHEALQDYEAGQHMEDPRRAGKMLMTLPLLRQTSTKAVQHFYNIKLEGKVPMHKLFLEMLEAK

ERα [3] = biological target: T3, ERα (Homo sapiens, UniProt P03372); settings: inhibition of estrogen receptor/coactivator recognition, cited from earlier work; for Ki: read-out: K, values ERα
T3 sequence (P03372 1-595): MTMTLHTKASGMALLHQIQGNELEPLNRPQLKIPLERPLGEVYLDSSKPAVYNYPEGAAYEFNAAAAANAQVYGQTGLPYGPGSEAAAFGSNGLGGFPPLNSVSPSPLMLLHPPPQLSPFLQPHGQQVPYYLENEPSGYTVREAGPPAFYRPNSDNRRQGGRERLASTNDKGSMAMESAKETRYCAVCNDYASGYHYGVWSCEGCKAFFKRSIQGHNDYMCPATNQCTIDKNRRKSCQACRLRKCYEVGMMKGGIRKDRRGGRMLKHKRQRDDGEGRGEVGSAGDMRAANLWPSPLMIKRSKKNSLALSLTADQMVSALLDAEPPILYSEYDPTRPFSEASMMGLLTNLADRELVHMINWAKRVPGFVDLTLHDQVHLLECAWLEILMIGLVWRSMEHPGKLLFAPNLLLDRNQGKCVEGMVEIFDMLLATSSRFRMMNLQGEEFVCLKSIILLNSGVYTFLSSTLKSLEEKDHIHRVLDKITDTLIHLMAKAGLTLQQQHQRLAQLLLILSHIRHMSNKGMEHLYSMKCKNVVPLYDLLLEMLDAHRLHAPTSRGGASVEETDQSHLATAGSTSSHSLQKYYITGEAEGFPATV

ERβ = ERβ (Homo sapiens, UniProt Q92731); settings: cited from earlier work; for Ki: inhibition of estrogen receptor/coactivator recognition, read-out: K, values ERβ; for ERβ/ERα: ratio of K values
ERα [4] = biological target: T3, ERα; settings: cited from earlier work
mAb-E2 = settings: cited from earlier work
[5] = cited from earlier work
Annexin A5 = biological target: T4, Annexin A5 (Homo sapiens (Human), UniProt P08758 2-320, directly labeled with a fluorescent tag (Cy 5 per paragraph 324; Cy3 per paragraph 57)); test: peptide density-array chip
T4 construct: also called ANXA5; ANX-A5
T4 sequence: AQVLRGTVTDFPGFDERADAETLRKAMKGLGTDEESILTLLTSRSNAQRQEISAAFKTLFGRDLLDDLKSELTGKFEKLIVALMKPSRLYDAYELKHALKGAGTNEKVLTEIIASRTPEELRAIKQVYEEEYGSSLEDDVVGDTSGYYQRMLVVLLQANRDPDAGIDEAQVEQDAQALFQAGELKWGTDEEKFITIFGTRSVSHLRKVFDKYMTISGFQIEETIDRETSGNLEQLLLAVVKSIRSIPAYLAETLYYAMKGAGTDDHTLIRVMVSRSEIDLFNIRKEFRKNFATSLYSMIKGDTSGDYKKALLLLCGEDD

ERβ, sequence (Q92731 whole entry, species assumed): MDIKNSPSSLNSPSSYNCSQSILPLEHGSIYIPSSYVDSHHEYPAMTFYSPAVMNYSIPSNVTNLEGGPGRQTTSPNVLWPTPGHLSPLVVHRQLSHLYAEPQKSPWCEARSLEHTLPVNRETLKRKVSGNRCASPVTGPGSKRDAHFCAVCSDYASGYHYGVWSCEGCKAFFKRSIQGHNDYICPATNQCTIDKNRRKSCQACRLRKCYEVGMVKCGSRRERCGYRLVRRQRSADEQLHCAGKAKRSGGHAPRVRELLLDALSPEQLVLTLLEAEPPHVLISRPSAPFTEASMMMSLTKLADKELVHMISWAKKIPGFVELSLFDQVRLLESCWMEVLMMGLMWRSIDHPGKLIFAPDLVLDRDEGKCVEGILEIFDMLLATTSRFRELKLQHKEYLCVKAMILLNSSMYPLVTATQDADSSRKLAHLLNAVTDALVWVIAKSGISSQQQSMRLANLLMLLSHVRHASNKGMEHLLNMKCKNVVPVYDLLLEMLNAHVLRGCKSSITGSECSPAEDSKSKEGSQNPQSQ

In the case of PSEDRGELWRLLSVTERQN [Peptide L3-09], the “inhibition of transcriptional activity of EPPα” value (“inhibition” for short) [1] is listed as “reducing the transcriptional activity of EPPα to basal levels”.

For 4-hydroxytamoxifen, the “displacement of fluorescein-labeled PGC1alpha peptide from the ERRgamma LBD” value ([2]; increasing concentrations) is listed as “displaced”.

For IPLSGSELSRLLLTEMPEL [Peptide L3-80], the “inhibition” value [1] is given as “reducing the transcriptional activity of EPPα to basal levels”.

For EAEEPSLLKKLLLAPANTQ [PGC1alpha], the “interaction with ERRgamma” value [2] is listed as “interacted most strongly”.

For QAQQKSLLQQLLTE [Structure 10], the Ki (ERα [3]) is listed as 450 nM, the Ki (ERβ) is listed as 1100 nM and the ERβ/ERα (ERβ) is listed as 2.4.

For VSWFFE [EMP-1], the IC50 (ERα [4]) is given as 100000 nM, the IC50 (mAb-E2) is given as 6 nM and the “estrogenic activity in vivo” value [5] is given as “possess estrogenic activity in vivo”.

In the case of KKILHRLLQ [Structure 3], the Ki (ERα [3]) is listed as 170 nM, the Ki (ERβ) is listed as 2800 nM and the ERβ/ERα (ERβ) is listed as 16.5.

In the case of LTERHKILHRLLQEGSPSD [Structure 9], the Ki (ERα [3]) is listed as 700 nM, the Ki (ERβ) is listed as 5200 nM and the ERβ/ERα (ERβ) is listed as 7.4.

In the case of “LEQLL [Structure 1, H-Leu-Glu-Gln-Leu-Leu-OH]”, the “K, values ERα” value (ERα [3]) is listed as “not active” and the Ki (ERβ) is listed as 201000 nM.

In the case of KHKILHRLLQDSS [Structure 4], the Ki (ERα [3]) is given as 380 nM, the Ki (ERβ) is given as 6900 nM and the ERβ/ERα (ERβ) is given as 18.1.

For MSVQYPELQRLLMAGSTEL [Peptide L3-28], the “inhibition” value [1] is listed as “reducing the transcriptional activity of EPPα to basal levels”.

For “Mannosylacetyl-Leu-Glu-Gln-Leu-Leu-OH (Mannosylacetyl-LEQLL-OH) [Structure 2]”, the Ki (ERα [3]) is listed as greater than 200000 nM and the Ki (ERβ) is listed as greater than 200000 nM.

For GPQTPQAQQKSLLQQLLTE [SRC1-4], the “interaction with ERRgamma” value [2] is given as “interacted most strongly”.

In the case of LPYEGSLLLKLLRAPVEEV [Peptide D22], the “interaction with ERRgamma” value [2] is given as “interacted most strongly”.

In the case of VSWFFED [EMP-2], the IC50 (ERα [4]) is listed as 100000 nM, the IC50 (mAb-E2) is listed as 30 nM and the “estrogenic activity in vivo” value [5] is listed as “possess estrogenic activity in vivo”.

SERYWARY (Array-synthesised 8-mer) showed a Kd (Annexin A5) of 91.7 nM.

Work on SERCWARY (Array-synthesised 8-mer) yielded a Kd (Annexin A5) of 218 nM.

SERYTARY (Array-synthesised 8-mer) showed a Kd (Annexin A5) of 86.9 nM.

SERCYARY (Array-synthesised 8-mer) showed a Kd (Annexin A5) of 301 nM.

SERYYARY (Array-synthesised 8-mer) showed a Kd (Annexin A5) of 361 nM.

Work on SERYSARY (Array-synthesised 8-mer) yielded a Kd (Annexin A5) of 82.5 nM.

In the case of SERFFARY (Array-synthesised 8-mer), the Kd (Annexin A5) is reported as 520 nM.

Molecule AYLHHAAG (Array-synthesised 8-mer) has a Kd (Annexin A5) of 87.6 nM.

AYLHYAAG (Array-synthesised 8-mer) showed a Kd (Annexin A5) of 21.9 nM.

For AYLMHAAG (Array-synthesised 8-mer), the Kd (Annexin A5) was 63 nM.

Molecule AYLHGAAG (Array-synthesised 8-mer) has a Kd (Annexin A5) of 93.1 nM.

Molecule AYLGHAAG (Array-synthesised 8-mer) has a Kd (Annexin A5) of 57.5 nM.

With AYLGYAAG (Array-synthesised 8-mer) the Kd (Annexin A5) was 24.5 nM.

With AYLVHAAG (Array-synthesised 8-mer) the Kd (Annexin A5) was 92.2 nM.

Source: patent publication US20130053541A1, “METHODS FOR DISCOVERING MOLECULES THAT BIND TO PROTEINS” (LYNNTECH, INC., priority 2011, published 2013)
